Results published in patent US20220340894A1 (CDR LIFE, published 2022).

B1: M0707 (Fab, V domains shown)
VH: QQQLEESGGGLVTPGTPLTLTCTVSGIDLSSYAMGWVRQAPGKGLEWIGTINDGGSAFYASWVKGRFTISRTSTTVDLKITSPTAEDTATYFCAKTYGTNGDVYWGYFNLWGQGTLVTVSS
VL: ELVMTQTPASVSEPVGGTVTIKCQASQSIGSNLAWYQQKPGQPPKLLIYYESILASGVPSRFSGSGSGTEYTLTISGAQADDAATYYCQQGYSSSNILNAFGGGTEVVVKR
B2: M0709 (Fab, V domains shown)
VH: QSVKESGGRLVTPGTPLTLTCTVSGFSLSNYAMSWVRQAPGKGLEYIGIVSSGGTTYYASWAKGRFTISKTSTTVDLKITSPTTEDTATYFCAKDLYYGPTTYSAFNLWGQGTLVTVSS
VL: SELVLTQPQSVSGSLGQTVSISCKRARDNIEDYYVHWYQQHPGKTPTIVIHKDDQRPSGVPDRFSGSIDSTSNSASLTITGLLAEDEADYFCQSFDNDASPVFGGGTQLTVTG
B3: M0763 (Fab, V domains shown)
VH: B2 VH
VL: SELVLTQPASVQVNLGQTVSLTCTADTLSRSYASWYQLKPGQAPVLLIYRDTSRPSGVPDRFSGSSSGNTATLTISGAQAGDEGDYVCATSDGSGSNFQLFGGGTQLTVTG
B4: M0702 (Fab, V domains shown)
VH: QEQLEESGGGLVTPGTPLTLTCTASGFSLSSYAMIWVRQAPGKGLEWIGTINDGGTAFYANWVKGRFTISRTSTTVDLKMTSPTTEDTATYFCARAYGSNGDVYWGYVNLWGQGTLVTVSS
VL: ELVMTQTPASVSEPVGGTVTIKCQASQSIGSNLAWYQQKPGQPPKLLIYAAANLASGVSSRFKGSRSGTEYTLTISGVQAADAATYYCQQGYSSSNVANVFGGGTELEILR
B5: M0766 (Fab, V domains shown)
VH: PEQLEESGGGLVTPGGVLTLTCTASGFSFSSYGVNWVRQAPGKGLEWIGFIFGDGTTYYANWAKGRFTISKTSTTVDLKMTSPTTEDTATYFCARDGYGGYDYIINLWGQGTLVTVSS
VL: AQVLTQTPASVSAAVGGTVSISCQSSQSVVNNNWLAWYQQKPGQPPKLLIYKASTLESGVPSRFKGSGSGTQFTLTISGVQADDAATYYCLGEFSCSSADCHAFGGGTELEILR
B6: M0705 (Fab, V domains shown)
VH: QQQLVESGGRLVTPGTPLTLTCTASGIDLNSNAMSWVRQGPGKGLEWIGDIWSGGYTDYASWAKGRFTISKTSTTVDLKMTSLTAADTATYFCARDRLAGDGVVDYDLWGQGTLVTVSS
VL: ELDMTQTPASVEVAVGGTVTIKCQASQNIYSNLAWYQQKPGQRPKLLIYGASTLASGVPSRFKGSGSGTEYTLTINGVQAADAATYYCQQGFSSSNVDNVFGGGTEVVVKR

What was measured:
[1] = target: T1, HLA-A2/MAGE-A4 complex (HLA-A*02:01 extracellular domain, human β2m, MAGE-A4 peptide 230-239) (human, UniProt P04439 25-299 at identity 0.94); P61769 21-119); test: direct ELISA, plate coated with HLA-A2/MAGE-A4 complex, OD450 nm (top panel, 'Binding to HLA-A2/MAGE-A4', M0700-M0709)
T1 construct: also called MAGE-A4/HLA-A2 complex; pMHC
Procedure: (§1) All available hits were evaluated for their ability to bind MAGE-A4/HLA-A2 complex and a control peptide/HLA-A2 complex in a direct binding ELISA assay. […] Briefly, 96 well ELISA plates were coated with purified human MAGE-A4/HLA-A2 complex or control HLA-A2 complex. Serial dilutions of antibody molecules were added to the plate and detected by an anti-kappa light chain-HRP (Invitrogen) followed by goat anti-rabbit IgG(H+L) HRP (Southern Biotech). […] All tested molecules are rabbit-derived antibodies that are representative of antibodies identified from the nucleic acid libraries described herein.

[2] = target: T2, control peptide 1 (Ctrl.1, …) displayed by HLA-A2 on T2 cells (human); test: flow cytometry on T2 cells pulsed with control peptide 1; relative MFI = binding over peptide loading (BB7.2)
T2 construct: whole, on cells
Procedure: (§2) TAP-deficient T2 cells were pulsed with HLA-A2-restricted peptides (MAGE-A4 or control peptides) and incubated with MAGE-A4 binders followed by fluorophore-labeled specific detection antibodies and analysis by flow cytometry.
(§3) Briefly, T-B hybrid T2 cells were incubated with serum-free RPMI1640 medium containing MAGE-A4 or control peptides. […] Peptide loading efficiency was verified by using the ratio between median fluorescent intensity (MFI) of HLA-A2-binding antibody BB7.2 on peptide loaded T2 cells and MFI of unloaded T2 cells (>1). T2 cells were incubated with each of the specific antibodies followed by fluorophore-labeled detection antibodies (anti-kappa light chain or anti-Flag). The cells were fixed and fluorescence was measured by flow cytometry.

[3] = target: T3, MAGE-A4 peptide-HLA-A2 complex presented on cells (human); test: flow cytometry on T2 cells pulsed with MAGE-A4 peptide; relative MFI = binding over peptide loading (BB7.2)
T3 construct: whole, on cells; Used both for T2 cells pulsed with the peptide and for tumour cell lines that present it themselves; also called MAGE-A4 positive/HLA-A2 positive cells
Procedure: as §2, §3

[4] = target: T4, control peptide 2 (Ctrl.2, …) displayed by HLA-A2 on T2 cells (human); test: flow cytometry on T2 cells pulsed with control peptide 2; relative MFI = binding over peptide loading (BB7.2)
T4 construct: whole, on cells
Procedure: as §2, §3

[5] = target: T2, control peptide 1 (Ctrl.1, …) displayed …; test: flow cytometry on T2 cells pulsed with control peptide 1; relative MFI = binding over peptide loading (BB7.2); antibody concentration not given
Procedure: as §2, §3

[6] = target: T4, control peptide 2 (Ctrl.2, …) displayed …; test: flow cytometry on T2 cells pulsed with control peptide 2; relative MFI = binding over peptide loading (BB7.2); antibody concentration not given
Procedure: as §2, §3

[7] = target: T1, HLA-A2/MAGE-A4 complex (HLA-A*02:01 …); test: direct ELISA, plate coated with HLA-A2/MAGE-A4 complex, OD450 nm (second panel, 'Binding to HLA-A2/MAGE-A4', M0710-M0766)
Procedure: as §1

[8] = target: T5, control peptide 3 (Ctrl.3, …) displayed by HLA-A2 on T2 cells (human); test: flow cytometry on T2 cells pulsed with control peptide 3; relative MFI = binding over peptide loading (BB7.2); antibody concentration not given
T5 construct: whole, on cells
Procedure: as §2, §3

| Binder | binding result [1] | binding result [3] | binding result [7] | other results |
| --- | --- | --- | --- | --- |
| B1 | binds | – | – | – |
| B2 | binds | binds | – | binding result [2]: binds; binding result [4]: binds |
| B3 | – | binds | binds | binding result [5]: no binding; binding result [6]: no binding; binding result [8]: no binding |
| B4 | – | – | – | EC50 (read off the curve) [1]: ~0.6 nM |
| B5 | – | – | binds | – |
| B6 | binds | – | – | – |
